# B1: BMP4: Bone Morphogenic Protein 4 (R&D Systems) (protein, UniProt P12644 293-408, looked up)
# Bone morphogenetic protein 4: SPKHHSQRARKKNKNCRRHSLYVDFSDVGWNDWIVAPPGYQAFYCHGDCPFPLADHLNSTNHAIVQTLVNSVNSSIPKACCVPTELSAISMLYLDEYDKVVLKNYQEMVVEGCGCR
# B2: Activin A: exogenous activin protein (R&D Systems) (protein, UniProt P08476 311-426, looked up)
# Inhibin beta A chain: GLECDGKVNICCKKQFFVSFKDIGWNDWIIAPSGYHANYCEGECPSHIAGTSGSSLSFHSTVINHYRMRGHSPFANLKSCCVPTKLRPMSMLYYDDGQNIIKKDIQNMIVEECGCS
# modifications: Inhibin beta A chain
# B3: WNT3A: exogenous Wnt protein (R&D Systems) (protein, UniProt P56704 19-352, looked up)
# Protein Wnt-3a: SYPIWWSLAVGPQYSSLGSQPILCASIPGLVPKQLRFCRNYVEIMPSVAEGIKIGIQECQHQFRGRRWNCTTVHDSLAIFGPVLDKATRESAFVHAIASAGVAFAVTRSCAEGTAAICGCSSRHQGSPGKGWKWGGCSEDIEFGGMVSREFADARENRPDARSAMNRHNNEAGRQAIASHMHLKCKCHGLSGSCEVKTCWWSQPDFRAIGDFLKDKYDSASEMVVEKHRESRGWVETLRPRYTYFKVPTERDLVYYEASPNFCEPNPETGSFGTRDRTCNVSSHGIDGCDLLCCGRGHNARAERRREKCRCVFHWCCYVSCQECTRVYDVHTCK
# What was measured:
# Type in all cases: cell-based, human
# hPGCLCs in P-ELS = assay: hPGCLC specification in P-ELS; details: P-ELS treated with 0.4 μM or 2 μM
# Source text: (§1) Cell lines. hPSC lines used in this study include H1 human ES cell (WA01, WiCell; NIH registration number: 0043), H9 human ES cell (WA09, WiCell; NIH registration number: 0062) and 1196a (a human iPSC line from the University of Michigan Pluripotent Stem Cell Core31). All hPSC lines have been authenticated by original sources as well as in-house by immunostaining for pluripotency markers and successful differentiation to the three germ layers. All hPSC lines are maintained in a feeder-free system for at least ten passages and authenticated as karyotypically normal. Karyotype analysis was performed by Cell Line Genetics. All hPSC lines are tested negative for mycoplasma contamination (LookOut Mycoplasma PCR Detection Kit, Sigma-Aldrich). Cell culture. hPSCs were maintained in a standard feeder-free culture system using mTeSR medium (mTeSR; STEMCELL Technologies) or TeSR-E8 medium (Essential 8 or E8; STEMCELL Technologies) and lactate dehydrogenase-elevating virus (LDEV)-free, human ES cell-qualified reduced growth factor basement membrane matrix Geltrex (Thermo Fisher Scientific; derived from Engelbreth-Holm-Swarm tumors similarly to Matrigel). Cell cultures were visually examined during each passage to ensure absence of spontaneously differentiated, mesenchymal-like cells in culture. All hPSCs were used before reaching P70. Device fabrication. […]
# [1] = tested on: PrePS-EPI-like cells in P-ELS; assay: Posterior primitive streak-like cell development in P-ELS with antagonists in the induction channel; details: prolonged culture to t=48 h, IWR1 10 μM in induction channel
# Source text: as §1, with “fabrication. The microfluidic device consists of a polydimethylsiloxane (PDMS) structure layer bonded to a coverslip. The PDMS structure layer is made by mixing PDMS curing agent and base polymer (Sylgard 184; Dow Coming) at a ratio of 1:10 before casting PDMS prepolymer onto a microfabricated silicon mold and baking at 110° C. for 40 min. Medium reservoirs (8 mm in diameter) and gel-loading ports (1.2 mm in diameter) were then punched into the PDMS structure layer using Harris Uni-Core punch tools (Ted Pella). After cleaning with ethanol and air plasma activation, the PDMS structure layer was bonded to a coverslip before baking at 80° C. overnight. Before usage, the microfluidic device was sterilized under UV light for 30 min.” for “fabrication.”
# [2] = tested on: embryonic-like sacs (P-ELS, A-ELS); assay: Microfluidic generation of asymmetric embryonic-like sacs with morphogens in the induction channel; details: for Cyst phenotype obtained: 50 ng ml^−1 each, supplemented into the induction channel
# Source text: Cell lines. hPSC lines used in this study include H1 human ES cell (WA01, WiCell; NIH registration number: 0043), H9 human ES cell (WA09, WiCell; NIH registration number: 0062) and 1196a (a human iPSC line from the University of Michigan Pluripotent Stem Cell Core31). All hPSC lines have been authenticated by original sources as well as in-house by immunostaining for pluripotency markers and successful differentiation to the three germ layers. All hPSC lines are maintained in a feeder-free system for at least ten passages and authenticated as karyotypically normal. Karyotype analysis was performed by Cell Line Genetics. All hPSC lines are tested negative for mycoplasma contamination (LookOut Mycoplasma PCR Detection Kit, Sigma-Aldrich). Cell culture. hPSCs were maintained in a standard feeder-free culture system using mTeSR medium (mTeSR; STEMCELL Technologies) or TeSR-E8 medium (Essential 8 or E8; STEMCELL Technologies) and lactate dehydrogenase-elevating virus (LDEV)-free, human ES cell-qualified reduced growth factor basement membrane matrix Geltrex (Thermo Fisher Scientific; derived from Engelbreth-Holm-Swarm tumors similarly to Matrigel). Cell cultures were visually examined during each passage to ensure absence of spontaneously differentiated, mesenchymal-like cells in culture. All hPSCs were used before reaching P70. Device fabrication. The microfluidic device consists of a polydimethylsiloxane (PDMS) structure layer bonded to a coverslip. The PDMS structure layer is made by mixing PDMS curing agent and base polymer (Sylgard 184; Dow Coming) at a ratio of 1:10 before casting PDMS prepolymer onto a microfabricated silicon mold and baking at 110° C. for 40 min. Medium reservoirs (8 mm in diameter) and gel-loading ports (1.2 mm in diameter) were then punched into the PDMS structure layer using Harris Uni-Core punch tools (Ted Pella). After cleaning with ethanol and air plasma activation, the PDMS structure layer was bonded to a coverslip before baking at 80° C. overnight. Before usage, the microfluidic device was sterilized under UV light for 30 min. Geltrex diluted in mTeSR (8 mg ml^−1) was then injected into the central gel channel and allowed to cure for 10 min at 37° C. in an incubator. The central gel channel was separated from the cell loading and induction channels by trapezoid-shaped supporting posts. Diluted Geltrex matrix was contained in the gel channel by supporting posts owing to surface tension. Upon gelation, Geltrex matrix contracts, generating concave Geltrex pockets between supporting posts. mTeSR medium was immediately added to medium reservoirs to fill both the cell loading and induction channels. The microfluidic device was then incubated at 37° C. and 5% CO2, for 24 h to stabilize the Geltrex matrix in the gel channel. Microfluidic assays. Colonies of hPSCs were dissociated by Accutasc. (Sigma-Aldrich) at 37° C., for 10 min before being suspended in mTeSR as single cells. Cells were then centrifuged and resuspended in mTeSR, containing 10 μM Y27632 (Tocris), a ROCK inhibitor that prevents dissociation-induced apoptosis of hPSCs32, at a concentration of 8×10^6 cells per ml. After aspirating mTeSR from medium reservoirs, 10 μl hPSC suspension was introduced into the cell-loading channel (t=−18 h), The microfluidic device was then tilted 90° for 10 min to allow cell settlement into Geltrex pockets and their clustering and adhesion to Geltrex matrix. Medium reservoirs were then refilled with fresh mTeSR medium containing 10 μM Y27632. […]
molecule,measurement,setting,value
O=C(NNc1nc2cc(F)ccc2n2cccc12)c1cnccn1 [SC144],Effect on hPGCLC specification,hPGCLCs in P-ELS,did not affect
O=C(Nc1cccc2cccnc12)c1ccc(N2C(=O)[C@@H]3[C@H](C2=O)[C@@H]2C=C[C@H]3C2)cc1 [IWR1],Effect on progressive development of P-ELS,[1],does not affect
B1,Cysts differentiated into asymmetrical E-cadherin+ sacs (P-ELS),"[2]; BMP4 50 ng ml^−1 in induction channel from t=0 h, t=36 h",92%
same,Cysts patterned to amniotic ectoderm-like fate (A-ELS),"[2]; BMP4 in induction channel, IWP2 and noggin in cell-loading channel, t=36 h",96%
B2,Cyst phenotype obtained,[2],cysts containing OCT4^+NANOG^+EPILCs intermixed with EOMES^+T^+CDX2^− anterior primitive streak-like cells
B3,Cyst phenotype obtained,[2],"columnar epiblast-like cysts containing OCT4^+NANOG^+, COX2^−EOMES^−T^− EPILCs"
same,Requirement for embryonic-like sac formation,"[2]; induction channel, with or without BMP4",dispensable

# Reference: US20220331371A1, “DEVELOPMENT OF EMBRYONIC-LIKE TISSUE FROM STEM CELLS” (The Regents of the University of Michigan, priority 2019, published 2022)
